Measured values reported in paper PMC3750193, “Disassembly of All SNARE Complexes by N-Ethylmaleimide-sensitive Factor (NSF) Is Initiated by a Conserved 1:1 Interaction between α-Soluble NSF Attachment Protein (SNAP) and SNARE Complex*^([image sbox.jpg])” (The Journal of Biological Chemistry, 2013).

Key:
[1] = target: T1, VAMP7-syntaxin1-SNAP25 ternary SNARE complex, labeled with Oregon Green 488 (rat, UniProt Q9JHW5 1-190; P32851 1-265; P60881-2 1-206, C21S | C56V | C145S | S249C | K253C, Oregon Green 488 (maleimide) on cysteines; the labeled endogenous and mutant cysteines are shown in Figure 1A); test: other fluorescence titration; change in Oregon Green 488 fluorescence intensity of the labeled SNARE complex as a function of α-SNAP concentration; fit y = Fmax·x/(KD + x); three independent experiments; conditions: both partners purified
T1 construct: VAMP7, rat, residues 1-190; syntaxin1A, rat, residues 1-265; SNAP25A, rat; Removal of the His6 tag is told only for α-SNAP; also called VAMP7(1–190)-C21S/C56V-syntaxin1A(1–265)-C145S/S249C/K253C-SNAP25A; source: E. coli BL21(DE3), coexpressed, purified (Ni-NTA, Superdex 200); copies: + +
T1 sequence (Q9JHW5 1-190 C21S/C56V, chain 1 of 3): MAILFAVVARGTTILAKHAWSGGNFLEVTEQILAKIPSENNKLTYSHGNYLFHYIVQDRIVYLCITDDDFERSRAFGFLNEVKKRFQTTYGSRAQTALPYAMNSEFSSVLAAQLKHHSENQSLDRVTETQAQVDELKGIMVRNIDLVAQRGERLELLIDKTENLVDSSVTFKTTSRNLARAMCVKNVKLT
T1 sequence (P32851 1-265 C145S/S249C/K253C, chain 2 of 3): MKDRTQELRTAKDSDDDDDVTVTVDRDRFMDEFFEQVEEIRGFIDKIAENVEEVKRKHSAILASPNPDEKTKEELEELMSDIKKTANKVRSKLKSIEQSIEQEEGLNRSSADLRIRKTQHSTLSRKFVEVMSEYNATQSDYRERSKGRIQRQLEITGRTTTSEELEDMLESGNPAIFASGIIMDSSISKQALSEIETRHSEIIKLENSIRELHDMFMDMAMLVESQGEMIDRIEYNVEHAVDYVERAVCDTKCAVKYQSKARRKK
T1 sequence (P60881 other isoform, or with tags, fused parts or gaps with the stated changes, chain 3 of 3): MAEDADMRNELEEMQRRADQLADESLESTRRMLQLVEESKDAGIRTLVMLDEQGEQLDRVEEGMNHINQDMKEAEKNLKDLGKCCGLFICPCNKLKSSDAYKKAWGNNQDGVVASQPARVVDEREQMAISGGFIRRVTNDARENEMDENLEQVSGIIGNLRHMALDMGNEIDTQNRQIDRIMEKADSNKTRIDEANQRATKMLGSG

[2] = target: T2, ^ΔNVAMP7-^ΔNsyntaxin1-SNAP25 core complex (rat, UniProt Q9JHW5 119-190; P32851 191-265; P60881-2 1-206, S249C | K253C); test: SEC-MALS; 30 μM SNARE complex and 30 μM α-SNAP (1:1 mixture); WTC-030S5 column; 20 mM Tris-HCl (pH 8.0), 50 mM NaCl, 0.1 mM TCEP; conditions: both partners purified
T2 construct: VAMP7, rat, residues 119-190; syntaxin1A, rat, residues 191-265; the construct's printed name also holds C145S, which lies outside 191-265; SNAP25A, rat; also called ^ΔNSNARE complex; core of the VAMP7-syntaxin1-SNAP25 SNARE complex (without the N-terminal domains); source: E. coli, coexpressed, purified; copies: + +
T2 sequence (Q9JHW5 119-190, stated change not applied, chain 1 of 3): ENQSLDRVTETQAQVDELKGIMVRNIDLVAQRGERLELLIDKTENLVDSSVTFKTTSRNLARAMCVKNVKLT
T2 sequence (P32851 191-265 S249C/K253C, chain 2 of 3): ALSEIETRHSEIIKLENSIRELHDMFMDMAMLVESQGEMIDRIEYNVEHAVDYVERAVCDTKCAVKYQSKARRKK
T2 sequence (P60881 other isoform, or with tags, fused parts or gaps S249C | K253C | S249C | K253C | mutant, chain 3 of 3): as the sequence (P60881 other isoform, or with tags, fused parts or gaps with the stated changes, chain 3 of 3) above

B1: α-soluble NSF attachment protein (α-SNAP) (natural protein, rat, UniProt P54921 1-295, looked up)
chain: MDTSGKQAEAMALLAEAERKVKNSQSFFSGLFGGSSKIEEACEIYARAANMFKMAKNWSAAGNAFCQAAQLHLQLQSKHDAATCFVDAGNAFKKADPQEAINCLMRAIEIYTDMGRFTIAAKHHISIAEIYETELVDVEKAIAHYEQSADYYKGEESNSSANKCLLKVAGYAAQLEQYQKAIDIYEQVGTSAMDSPLLKYSAKDYFFKAALCHFCIDMLNAKLAVQKYEELFPAFSDSRECKLMKKLLEAHEEQNVDSYTESVKEYDSISRLDQWLTTMLLRIKKTIQGDEEDLR
notes: α-SNAP, rat; His6 tag removed with tobacco etch virus protease; source: E. coli BL21(DE3), purified (Ni-NTA, Superdex 200)
- binding result [1]: binds
- stoichiometry N [2]: 1 α-SNAP per SNARE complex
